# Reference: article PMC4750872
# Molecular target: gankyrin (UniProt O75832)
# Assay: ITC
# UniProt O75832, sequence (O75832 whole entry): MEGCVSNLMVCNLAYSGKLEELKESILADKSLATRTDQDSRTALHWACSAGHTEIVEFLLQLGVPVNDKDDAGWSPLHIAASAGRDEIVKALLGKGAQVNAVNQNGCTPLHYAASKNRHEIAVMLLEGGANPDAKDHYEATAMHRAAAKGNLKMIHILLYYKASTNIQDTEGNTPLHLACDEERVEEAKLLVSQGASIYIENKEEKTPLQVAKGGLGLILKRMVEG
substance,measurement,value
FtsH-S6 ATPase,dH,-29 kcal/mol
